Measurements as given in patent publication US20210130471A1 (DRAGONFLY THERAPEUTICS, published 2021).

How the values were obtained:
[1] = biological target: T1, human NKG2D expressed on EL4 cells (Example 8) (human, UniProt P26718 1-216); experiment: flow cytometry on EL4 cells expressing human NKG2D
T1 construct: whole, on cells; also called extracellular NKG2D expressed on EL4 cells
T1 sequence (looked up): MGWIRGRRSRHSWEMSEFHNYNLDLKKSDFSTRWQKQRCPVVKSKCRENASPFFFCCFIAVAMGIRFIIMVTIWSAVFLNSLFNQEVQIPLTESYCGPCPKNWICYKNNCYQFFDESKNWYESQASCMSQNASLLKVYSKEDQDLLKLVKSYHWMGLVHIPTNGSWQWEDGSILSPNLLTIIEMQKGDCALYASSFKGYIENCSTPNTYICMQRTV
Procedure: EL4 mouse lymphoma cell lines were engineered to express human NKG2D. […] The binding of the multi-specific binding proteins to NKG2D was detected using fluorophore-conjugated anti-human IgG secondary antibodies. Cells were analyzed by flow cytometry, and fold-over-background (FOB) was calculated using the mean fluorescence intensity (MFI) of NKG2D-expressing cells compared to parental EL4 cells.

[2] = biological target: T2, CD33 expressed on human AML cells (MV4-11, Molm-13) (human, UniProt P20138 18-364); experiment: flow cytometry on Molm-13 and MV4-11 human AML cells
T2 construct: In the assay the endogenous CD33 of the human AML cell lines was the target; also called cell surface CD33; tumor associated antigen CD33
T2 sequence (P20138 18-364 limits assumed): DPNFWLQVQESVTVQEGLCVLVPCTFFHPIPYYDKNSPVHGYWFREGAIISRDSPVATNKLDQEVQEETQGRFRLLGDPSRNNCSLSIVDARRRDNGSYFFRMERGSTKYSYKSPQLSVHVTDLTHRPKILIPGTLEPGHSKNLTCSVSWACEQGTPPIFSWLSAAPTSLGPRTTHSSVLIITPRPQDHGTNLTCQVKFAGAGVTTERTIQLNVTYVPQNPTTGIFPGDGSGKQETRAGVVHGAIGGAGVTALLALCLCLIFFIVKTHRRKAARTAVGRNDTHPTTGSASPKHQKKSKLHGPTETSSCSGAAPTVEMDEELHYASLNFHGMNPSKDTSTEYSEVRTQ
Procedure: Human AML cell line MV4-11 and Molm-13 expressing CD33 were used to assay the binding of TriNKETs to the tumor associated antigen CD33. TriNKETs and optionally the parental anti-CD33 monoclonal antibody were incubated with the cells, and the binding was detected using fluorophore-conjugated anti-human IgG secondary antibodies. Cells were analyzed by flow cytometry, and fold-over-background (FOB) was calculated using the mean fluorescence intensity (MFI) from the TriNKETs and the parental monoclonal anti-CD33 antibody normalized to secondary antibody controls. […] The TriNKETs show binding to cell surface CD33 on MV4-11 (FIGS. 36A, 36B, and 36D) and Molm-13 cells (FIG. 36C).

B1: CD33-TriNKET-C26 (ADI-28226 and a CD33-binding domain) (bispecific antibody, V domains shown)
VH 1: QVQLQQWGAGLLKPSETLSLTCAVYGGSFSGYYWSWIRQPPGKGLEWIGEIDHSGSTNYNPSLKSRVTISVDTSKNQFSLKLSSVTAADTAVYYCARARGPWSFDPWGQGTLVTVSS
VL 1: DIQMTQSPSTLSASVGDRVTITCRASQSISSWLAWYQQKPGKAPKLLIYKASSLESGVPSRFSGSGSGTEFTLTISSLQPDDFATYYCQQYGSFPITFGGGTKVEIK
VH 2: QVQLVQSGAEVKKPGASVKVSCKASGYTFTDYVVHWVRQAPGQGLEWMGYINPYNDGTKYNEKFKGRVTMTRDTSISTAYMELSRLRSDDTAVYYCARDYRYEVYGMDYWGQGTLVTVSS
VL 2: DIVLTQSPASLAVSPGQRATITCTASSSVNYIHWYQQKPGQPPKLLIYDTSKVASGVPARFSGSGSGTDFTLTINPVEANDTANYYCQQWRSYPLTFGQGTKLEIK
B1: binds [1].

B2: CD33-TriNKET-A49 (ADI-27749 and a CD33-binding domain) (bispecific antibody, V domains shown)
VH 1: EVQLVESGGGLVKPGGSLRLSCAASGFTFSSYSMNWVRQAPGKGLEWVSSISSSSSYIYYADSVKGRFTISRDNAKNSLYLQMNSLRAEDTAVYYCARGAPMGAAAGWFDPWGQGTLVTVSS
VL 1: DIQMTQSPSSVSASVGDRVTITCRASQGISSWLAWYQQKPGKAPKLLIYAASSLQSGVPSRFSGSGSGTDFTLTISSLQPEDFATYYCQQGVSFPRTFGGGTKVEIK
VH 2: QVQLVQSGAEVKKPGASVKVSCKASGYTFTDYVVHWVRQAPGQGLEWMGYINPYNDGTKYNEKFKGRVTMTRDTSISTAYMELSRLRSDDTAVYYCARDYRYEVYGMDYWGQGTLVTVSS
VL 2: DIVLTQSPASLAVSPGQRATITCTASSSVNYIHWYQQKPGQPPKLLIYDTSKVASGVPARFSGSGSGTDFTLTINPVEANDTANYYCQQWRSYPLTFGQGTKLEIK
B2: binds [1].

B3: CD33-TriNKET-A44 (ADI-27744 and a CD33-binding domain) (bispecific antibody, V domains shown)
VH 1: not shown
VL 1: DIQMTQSPSSVSASVGDRVTITCRASQGIDSWLAWYQQKPGKAPKLLIYAASSLQSGVPSRFSGSGSGTDFTLTISSLQPEDFATYYCQQGVSYPRTFGGGTKVEIK
VH 2: QVQLVQSGAEVKKPGASVKVSCKASGYTFTDYVVHWVRQAPGQGLEWMGYINPYNDGTKYNEKFKGRVTMTRDTSISTAYMELSRLRSDDTAVYYCARDYRYEVYGMDYWGQGTLVTVSS
VL 2: DIVLTQSPASLAVSPGQRATITCTASSSVNYIHWYQQKPGQPPKLLIYDTSKVASGVPARFSGSGSGTDFTLTINPVEANDTANYYCQQWRSYPLTFGQGTKLEIK
B3: binds [1].

B4: parental anti-CD33 monoclonal antibody (antibody, V domains shown)
VH: QVQLVQSGAEVKKPGASVKVSCKASGYTFTDYVVHWVRQAPGQGLEWMGYINPYNDGTKYNEKFKGRVTMTRDTSISTAYMELSRLRSDDTAVYYCARDYRYEVYGMDYWGQGTLVTVSS
VL: DIVLTQSPASLAVSPGQRATITCTASSSVNYIHWYQQKPGQPPKLLIYDTSKVASGVPARFSGSGSGTDFTLTINPVEANDTANYYCQQWRSYPLTFGQGTKLEIK
notes: Detected with anti-human IgG; also called parental monoclonal anti-CD33 antibody; parental anti-CD33 antibody
B4: binds [2].

B5: CD33-TriNKET-F47 (ADI-29447 and a CD33-binding domain) (bispecific antibody, V domains shown)
VH 1: QVQLQQWGAGLLKPSETLSLTCAVYGGSFSGYYWSWIRQPPGKGLEWIGEIDHSGSTNYNPSLKSRVTISVDTSKNQFSLKLSSVTAADTAVYYCARARGPWSFDPWGQGTLVTVSS
VL 1: DIQMTQSPSTLSASVGDRVTITCRASQSISSWLAWYQQKPGKAPKLLIYKASSLESGVPSRFSGSGSGTEFTLTISSLQPDDFATYYCQQYDTFITFGGGTKVEIK
VH 2: QVQLVQSGAEVKKPGASVKVSCKASGYTFTDYVVHWVRQAPGQGLEWMGYINPYNDGTKYNEKFKGRVTMTRDTSISTAYMELSRLRSDDTAVYYCARDYRYEVYGMDYWGQGTLVTVSS
VL 2: DIVLTQSPASLAVSPGQRATITCTASSSVNYIHWYQQKPGQPPKLLIYDTSKVASGVPARFSGSGSGTDFTLTINPVEANDTANYYCQQWRSYPLTFGQGTKLEIK
B5: binds [1].
